Measurements taken from patent US20140287471A1, “VARIANT CBH I POLYPEPTIDES WITH REDUCED PRODUCT INHIBITION” (BP CORPORATION NORTN AMERICA INC., priority 2011, published 2014).
Residue numbers refer to the chain shown, from its start. Where two headings read alike, the source gives them in different places.

Legend:
[1] = 4-MUL assay, specific activity (Example 2); assay type: biochemical; details: for SA (μmol 4 MU/min/mg) (MUL Data): primary screening, 10 μL enzyme, n=1; for 268— Measured Specific Activity (SA) / 268— Δ SA* (change in specific activity; ratio of variant: WT): 268 single substitution; for 411— Measured Specific Activity (SA) / 411— Δ SA* (change in specific activity; ratio of variant: WT): 411 single substitution; for 268A+411— Δ SA* (change in specific activity; ratio of variant: WT) / 268A+411— Measured Specific Activity (SA): double mutant 268A+411X
Outline: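 Specific activity derived from 4-MU standard curves and HPLC-quantified enzyme. Initial rates were taken over the first 15 min, with an endpoint read at 1 h (pH 10 carbonate quench), all at ex 365/em 450 nm. Conditions: 0.5 mM 4-MUL, 5 μg/mL enzyme, MES pH 6, 25 mM gluconolactone, cellobiose optional.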

[2] = 4-MUL cellobiose tolerance/inhibition assay, dose-response IC50 (Example 2); assay type: biochemical; details: for Tolerance at 1 mM CB (MUL Data): 1 mM cellobiose
Outline: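 IC50 reflects cellobiose concentration halving activity, fitted by four-parameter dose-response with zero activity fixed at knockout-strain background. Assays used 4-MUL (0.5 mM) with enzyme at 5 μg/mL or less, pH 6 MES, 25 mM gluconolactone blocking BG, cellobiose up to 100 mM; 4-MU fluorescence read.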

[3] = primary screening, 10 μL enzyme, cellobiose range 0.0001-100 mM, n=1, read-out: IC50 (MUL Data)
[4] = 268 single substitution, averaged IC50 from Tables 8-11, read-out: 268— Measured (merged IC50)
[5] = 411 single substitution, averaged IC50 from Tables 8-11, read-out: 411— Measured (merged IC50)
[6] = double mutant 268A+411X, averaged IC50 from Tables 8-11, read-out: 268A+411— Measured (merged IC50)
[7] = double mutant 268A+411X, expected IC50 (additive values of single mutations), read-out: 268A+411— Expected IC50
[8] = double mutant 268A+411X, measured versus expected additive IC50

B1: 411— Ser (protein, UniProt P62694 18-513, looked up, variant R411S)
Exoglucanase 1: QSACTLQSETHPPLTWQKCSSGGTCTQQTGSVVIDANWRWTHATNSSTNCYDGNTWSSTLCPDNETCAKNCCLDGAAYASTYGVTTSGNSLSIGFVTQSAQKNVGARLYLMASDTTYQEFTLLGNEFSFDVDVSQLPCGLNGALYFVSMDADGGVSKYPTNTAGAKYGTGYCDSQCPRDLKFINGQANVEGWEPSSNNANTGIGGHGSCCSEMDIWEANSISEALTPHPCTTVGQEICEGDGCGGTYSDNRYGGTCDPDGCDWNPYRLGNTSFYGPGSSFTLDTTKKLTVVTQFETSGAINRYYVQNGVTFQQPNAELGSYSGNELNDDYCTAEEAEFGGSSFSDKGGLTQFKKATSGGMVLVMSLWDDYYANMLWLDSTYPTNETSSTPGAVSGSCSTSSGVPAQVESQSPNAKVTFSNIKFGPIGSTGNPSGGNPPGGNRGTTTTRRPATTTGSSPGPTQSHYGQCGGIGYSGPTVCASGTTCQVLNPYYSQCL
SA (μmol 4 MU/min/mg) (MUL Data) [1]: 0.51 μmol 4 MU/min/mg
Tolerance at 1 mM CB (MUL Data) ([2]; primary screening, n=1): 60%
IC50 [2, 3]: 1.05 mM

B2: 268Ser (protein, UniProt P62694 18-513, looked up, variant R268S)
Exoglucanase 1: B1 Exoglucanase 1 with R251S, S394R
268— Measured Specific Activity (SA) [1]: 1.85 μmol 4 MU/min/mg CBH I
268— Δ SA* (change in specific activity; ratio of variant: WT) [1]: 2.4
IC50 [2, 4]: 0.5 mM

B3: 411Ser (protein, UniProt P62694 18-513, looked up, variant R411S)
Exoglucanase 1: B1 Exoglucanase 1
411— Measured Specific Activity (SA) [1]: 0.60 μmol 4 MU/min/mg CBH I
411— Δ SA* (change in specific activity; ratio of variant: WT) [1]: 0.8
IC50 [2, 5]: 0.87 mM

B4: 268A+411Leu (protein, UniProt P62694 18-513, looked up, variant R268A R411L)
Exoglucanase 1: B1 Exoglucanase 1 with R251A, S394L
268A+411— Δ SA* (change in specific activity; ratio of variant: WT) [1]: 1.3
IC50 [2, 6]: 22.7 mM
IC50 [2, 7]: 7.12 mM
synergy of double mutant (measured vs expected additive IC50) [2, 8]: 3.2

B5: 268— Ala (protein, UniProt P62694 18-513, looked up, variant R268A)
Exoglucanase 1: B1 Exoglucanase 1 with R251A, S394R
SA (μmol 4 MU/min/mg) (MUL Data) [1]: 1.42 μmol 4 MU/min/mg
Tolerance at 1 mM CB (MUL Data) ([2]; primary screening, n=1): 48%
IC50 [2, 3]: 0.87 mM

B6: 268A+411Thr (protein, UniProt P62694 18-513, looked up, variant R268A R411T)
Exoglucanase 1: B1 Exoglucanase 1 with R251A, S394T
268A+411— Measured Specific Activity (SA) [1]: 1.78 μmol 4 MU/min/mg CBH I
268A+411— Δ SA* (change in specific activity; ratio of variant: WT) [1]: 2.3
IC50 [2, 6]: 11.7 mM
IC50 [2, 7]: 2.54 mM
synergy of double mutant (measured vs expected additive IC50) [2, 8]: 4.6

B7: 268Cys (protein, UniProt P62694 18-513, looked up, variant R268C)
Exoglucanase 1: B1 Exoglucanase 1 with R251C, S394R
268— Measured Specific Activity (SA) [1]: 1.81 μmol 4 MU/min/mg CBH I
268— Δ SA* (change in specific activity; ratio of variant: WT) [1]: 2.4
IC50 [2, 4]: 0.38 mM

B8: 411— Cys (protein, UniProt P62694 18-513, looked up, variant R411C)
Exoglucanase 1: B1 Exoglucanase 1 with S394C
SA (μmol 4 MU/min/mg) (MUL Data) [1]: 0.52 μmol 4 MU/min/mg
Tolerance at 1 mM CB (MUL Data) ([2]; primary screening, n=1): 71%
IC50 [2, 3]: 1.6 mM

B9: 268Trp+411A (protein, UniProt P62694 18-513, looked up, variant R268W R411A)
Exoglucanase 1: B1 Exoglucanase 1 with R251W, S394A
268— +411 A Measured Specific Activity (SA) ([1]; double mutant 268X+411A): 1.37 μmol 4 MU/min/mg CBH I
268— +411 A Δ SA* (change in specific activity; ratio of variant: WT) ([1]; double mutant 268X+411A): 1.8
IC50 ([2]; double mutant 268X+411A, averaged IC50 from Tables 8-11, read-out: 268_+411A Measured (merged IC50)): 9.97 mM
268 +411A Expected IC50 ([2]; double mutant 268X+411A, expected IC50 (additive values of single mutations)): 1.69 mM
268_+411A Synergistic**↑ ([2]; double mutant 268X+411A, measured versus expected additive IC50): 5.9

B10: 411Gly (protein, UniProt P62694 18-513, looked up, variant R411G)
Exoglucanase 1: B1 Exoglucanase 1 with S394G
411— Measured Specific Activity (SA) [1]: 0.60 μmol 4 MU/min/mg CBH I
411— Δ SA* (change in specific activity; ratio of variant: WT) [1]: 0.8
IC50 [2, 5]: 1.81 mM

B11: 268A+411Glu (protein, UniProt P62694 18-513, looked up, variant R268A R411E)
Exoglucanase 1: B1 Exoglucanase 1 with R251A, S394E
268A+411— Δ SA* (change in specific activity; ratio of variant: WT) [1]: 0.6
IC50 [2, 6]: 14.4 mM
IC50 [2, 7]: 3.81 mM
synergy of double mutant (measured vs expected additive IC50) [2, 8]: 3.8

B12: 268Glu (protein, UniProt P62694 18-513, looked up, variant R268E)
Exoglucanase 1: B1 Exoglucanase 1 with R251E, S394R
268— Measured Specific Activity (SA) [1]: 1.84 μmol 4 MU/min/mg CBH I
268— Δ SA* (change in specific activity; ratio of variant: WT) [1]: 2.4
IC50 [2, 4]: 0.63 mM

B13: 268A+411Gln (protein, UniProt P62694 18-513, looked up, variant R268A R411Q)
Exoglucanase 1: B1 Exoglucanase 1 with R251A, S394Q
268A+411— Measured Specific Activity (SA) [1]: 1.22 μmol 4 MU/min/mg CBH I
268A+411— Δ SA* (change in specific activity; ratio of variant: WT) [1]: 1.6
IC50 [2, 6]: 13.7 mM
IC50 [2, 7]: 3.09 mM
synergy of double mutant (measured vs expected additive IC50) [2, 8]: 4.5
